Experimental data published in US20200207859A1 (priority 2017, published 2020).

What was measured:
Assay in all cases: Cell binding assay (FACS), anti-CD74 antibody without conjugation
[1] = biological target: T1, CD74 (Homo sapiens, UniProt P04233)
T1 construct: endogenous in cells; host or cells: B-lymphoma, multiple myeloma and leukemia cell lines
T1 sequence (P04233 1-296): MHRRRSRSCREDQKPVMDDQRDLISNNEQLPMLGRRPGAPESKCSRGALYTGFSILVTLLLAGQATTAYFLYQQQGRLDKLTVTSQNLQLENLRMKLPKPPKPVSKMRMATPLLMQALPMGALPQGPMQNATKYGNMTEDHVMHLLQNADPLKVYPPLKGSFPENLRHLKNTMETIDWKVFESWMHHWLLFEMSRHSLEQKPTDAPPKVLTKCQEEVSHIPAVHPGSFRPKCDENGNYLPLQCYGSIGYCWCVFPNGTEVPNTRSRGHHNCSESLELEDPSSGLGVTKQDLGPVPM
Procedure: (§1) Cell lines were maintained in RPMI, high glucose (Cellgro-Mediatech; Manassas, Va.) supplemented with 20% heat-inactivated fetal bovine serum (Hyclone; Thermo Scientific; Waltham, Mass.), 2 mM glutamax (Invitrogen; Carlsbad, Calif.) and 1× Pencillin/streptomycin (Cellgro-Mediatech; Manassas, Va.). Cells were harvested and re-suspended in FACS buffer (DPBS buffer supplemented with 1% bovine serum albumin). […] Cells were washed twice with ice-cold FACS buffer and incubated with 5 ug/ml Alexa 647 labeled donkey anti-human IgG antibody (Jackson Immune-Research) on ice for another 60 mins. Unstained cells and cells stained with secondary antibody alone were used as controls. Samples were then washed twice using FACS buffer and analyzed using a BD FACS Canto system. Mean fluorescence intensities were fitted using non-linear regression analysis with one site specific binding equation on GraphPad Prism. Data was expressed as geometric mean fluorescent intensity vs. antibody concentration in nM.

[2] = biological target: T1, CD74; parameters: unit: geometric MFI
Procedure: as §1

[3] = biological target: T1, CD74; parameters: key: NK = no killing; NB = no binding
Procedure: as §1

B1: anti-CD74 (antibody, V domains shown)
VH: QVQLVESGGGVVQPGRSLRLSCAASGFNFSDYGMHWVRQAPGKGLEWVAVIWYDGSISYYADSVKGRFTISRDNSKNTLYLQMNSLRAEDTAVYYCARGGTVEHGAVYGTDVWGQGTTVTVSS
VL: DIQMTQSPSSVSASVGDRVTITCRASQGIGSWLAWYQQKPGKAPKLLIYAADRLQSGVPSRFSGSGSGTDFTLTISSLQPEDFATYYCQQYHTYPLTFGGGTKVEIK
modifications: non-natural residues
Kd ([1]; ARD (MM) cells): 2.6 nM | Kd ([1]; BDCM (AML) cells): 4.5 nM | Kd ([1]; JVM-13 (CLL) cells): 2.5 nM | Kd ([1]; RPMI-6666 (HL) cells): 2.3 nM | Kd ([1]; RPMI-8226 (MM) cells): 3.6 nM | Kd ([1]; SU-DHL-6 (NHL) cells): 2 nM | Kd ([1]; SUP-B15 (ALL) cells): 3.5 nM | Cell Binding Bmax ([2]; ARD (MM) cells): 190 | Cell Binding Bmax ([2]; ARP-1 (MM) cells): 341 | Cell Binding Bmax ([2]; BDCM (AML) cells): 3059 | Cell Binding Bmax ([2]; JVM-13 (CLL) cells): 447 | Cell Binding Bmax ([2]; RPMI-6666 (HL) cells): 3879 | Cell Binding Bmax ([2]; RPMI-8226 (MM) cells): 119 | Cell Binding Bmax ([2]; SU-DHL-6 (NHL) cells): 1565 | Cell Binding Bmax ([2]; SUP-B15 (ALL) cells): 680 | Cell Binding Bmax ([3]; K562 (CML) cells): NB | Cell Binding Bmax ([3]; OPM-2 (MM) cells): NB
